Data: patent publication US20210122812A1 (Chugai, published 2021)

Legend:
[1] = target: T1, MRA-hIgA (human); experiment: SPR (Biacore T200), antibody captured on Protein A/G, MRA-hIgA as analyte, 37 C, pH 7.4, 3 uM Ca, steady state affinity
T1 construct: also called human IgA; recombinant of human IgA
Protocol: (§1) Using Biacore™ T200 surface plasma resonance assay (GE Healthcare), the obtained antibodies were assessed for their binding activity to human IgA (dissociation constant KD (M)). The measurement was carried out using as a running buffer 0.05% Tween 20® (polyoxyethylene (20) sorbitan monolaurate), 20 mmol/l ACES, 150 mmol/l NaCl (pH 7.4 or pH 5.8) containing 3 μM or 1.2 mM CaCl₂, or 0.05% Tween 20®, 20 mmol/l ACES, 150 mmol/l NaCl (pH 8.0) containing 0.1 μM or 10 mM CaCl₂.
(§2) After an adequate amount of recombinant Protein A/G (Thermo Scientific) was immobilized onto the Sensor chip CM5 (GE Healthcare) by an amino coupling method, antibodies were allowed to bind onto the sensor chip. An appropriate concentration of MRA-hIgA (described in (1-1)) was injected as an analyte to interact with antibodies on the sensor chip. Then, the sensor chip was regenerated by injecting 10 mmol/l glycine-HCl, pH 1.5. The measurement was carried out at 37° C. From the assay result, the dissociation constant KD (M) was calculated based on curve-fitting analysis and equilibrium constant analysis using Biacore™ T200 Evaluation Software (GE Healthcare).

[2] = target: T1, MRA-hIgA; experiment: SPR (Biacore T200), antibody captured on Protein A/G, MRA-hIgA as analyte, 37 C, pH 7.4, 1.2 mM Ca, 1:1 binding model
Protocol: as §1, §2

[3] = target: T2, GC-hIgA-FLAG (human); experiment: SPR (Biacore T200), antibody captured on Protein A/G on a CM5 chip, monomeric IgA injected as analyte, 37 C, running buffer pH 7.4 with 1.2 mM Ca; response normalized to capture ligand = 100 RU; analyte concentration not given [i]
T2 construct: Recombinant human IgA with a FLAG tag, not treated with SPDP; also called unaggregated hIgA; unaggregated human IgA
T2 sequence (VH, as listed by the source, chain 1 of 2): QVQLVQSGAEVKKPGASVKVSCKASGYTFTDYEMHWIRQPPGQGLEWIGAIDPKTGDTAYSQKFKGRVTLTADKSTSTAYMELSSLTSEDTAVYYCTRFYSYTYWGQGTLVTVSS
T2 sequence (VL, as listed by the source, chain 2 of 2): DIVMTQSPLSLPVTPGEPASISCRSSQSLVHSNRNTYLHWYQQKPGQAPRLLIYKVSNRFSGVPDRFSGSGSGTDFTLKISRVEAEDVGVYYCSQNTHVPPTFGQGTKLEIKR
Protocol: The obtained antibodies were assessed for their binding to unaggregated hIgA and aggregated hIgA using Biacore™ T200 surface plasma resonance assay (GE Healthcare). The measurement was carried out using as a running buffer, 0.05% Tween 20®, 20 mmol/ACES, 150 mmol/l NaCl (pH 7.4 and pH 5.8) containing 3 μM or 1.2 mM CaCl₂.
After an adequate amount of recombinant Protein A/G (Thermo Scientific) was immobilized onto Sensor chip CM5 (GE Healthcare) by an amino coupling method, antibodies were allowed to bind onto the sensor chip. An appropriate concentration of hIgA (described in Example 1) was injected as an analyte to interact with antibodies on the sensor chip. Then, the sensor chip was regenerated by injecting 10 mmol/L Glycine-HCl, pH 1.5. The measurement was carried out at 37° C.

[4] = target: T1, MRA-hIgA; experiment: SPR (Biacore T200), antibody captured on Protein A/G, MRA-hIgA as analyte, 37 C, pH 5.8, 3 uM Ca, steady state affinity
Protocol: as §1, §2

[5] = target: T1, MRA-hIgA; experiment: SPR (Biacore T200), antibody captured on Protein A/G, MRA-hIgA as analyte, 37 C, pH 5.8, 1.2 mM Ca, steady state affinity
Protocol: as §1, §2

T1 sequence (VH, as listed by the source): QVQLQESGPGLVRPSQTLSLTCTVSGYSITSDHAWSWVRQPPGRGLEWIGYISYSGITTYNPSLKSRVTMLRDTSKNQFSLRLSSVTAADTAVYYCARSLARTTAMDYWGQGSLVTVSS

B1: GA2-IgG1 (antibody, V domains shown)
VH: QVQLVQSGAEVKKPGSSVKVSCKASGGTFSSYAISWVRQAPGQGLEWMGGIIPIFGTANYAQKFQGRVTITADESTSTAYMELSSLRSEDTAVYYCARPRWETAISSDAFDIWGQGTMVTVSS
VL: DIQMTQSPSSLSASVGDRVTITCRASQSISDDLNWYQQKPGKAPKLLIYEASNLQSGVPSRFSGSGSGTDFTLTISSLQPEDFATYYCQQHSSSPLTFGQGTKVEIKR
notes: also called anti-hIgA antibody; anti-human IgA antibody
Question: Which results are given for B1?
Answer: Kd [1]: 6.7 µM; Kd [2]: 39 nM; binding result [3]: binds; Kd [4]: 5 µM; Kd [5]: 4 µM
